Laboratory results from IntAct's records for PubMed 20696938.

B1: DNA topoisomerase 4 subunit A (Escherichia coli (strain K12)), P0AFI2 (parent)
chain: MSDMAERLALHEFTENAYLNYSMYVIMDRALPFIGDGLKPVQRRIVYAMSELGLNASAKFKKSARTVGDVLGKYHPHGDSACYEAMVLMAQPFSYRYPLVDGQGNWGAPDDPKSFAAMRYTESRLSKYSELLLSELGQGTADWVPNFDGTLQEPKMLPARLPNILLNGTTGIAVGMATDIPPHNLREVAQAAIALIDQPKTTLDQLLDIVQGPDYPTEAEIITSRAEIRKIYENGRGSVRMRAVWKKEDGAVVISALPHQVSGARVLEQIAAQMRNKKLPMVDDLRDESDHENPTRLVIVPRSNRVDMDQVMNHLFATTDLEKSYRINLNMIGLDGRPAVKNLLEILSEWLVFRRDTVRRRLNYRLEKVLKRLHILEGLLVAFLNIDEVIEIIRNEDEPKPALMSRFGLTETQAEAILELKLRHLAKLEEMKIRGEQSELEKERDQLQGILASERKMNNLLKKELQADAQAYGDDRRSPLQEREEAKAMSEHDMLPSEPVTIVLSQMGWVRSAKGHDIDAPGLNYKAGDSFKAAVKGKSNQPVVFVDSTGRSYAIDPITLPSARGQGEPLTGKLTLPPGATVDHMLMESDDQKLLMASDAGYGFVCTFNDLVARNRAGKALITLPENAHVMPPVVIEDASDMLLAITQAGRMLMFPVSDLPQLSKGKGNKIINIPSAEAARGEDGLAQLYVLPPQSTLTIHVGKRKIKLRPEELQKVTGERGRRGTLMRGLQRIDRVEIDSPRRASSGDSEE
partner: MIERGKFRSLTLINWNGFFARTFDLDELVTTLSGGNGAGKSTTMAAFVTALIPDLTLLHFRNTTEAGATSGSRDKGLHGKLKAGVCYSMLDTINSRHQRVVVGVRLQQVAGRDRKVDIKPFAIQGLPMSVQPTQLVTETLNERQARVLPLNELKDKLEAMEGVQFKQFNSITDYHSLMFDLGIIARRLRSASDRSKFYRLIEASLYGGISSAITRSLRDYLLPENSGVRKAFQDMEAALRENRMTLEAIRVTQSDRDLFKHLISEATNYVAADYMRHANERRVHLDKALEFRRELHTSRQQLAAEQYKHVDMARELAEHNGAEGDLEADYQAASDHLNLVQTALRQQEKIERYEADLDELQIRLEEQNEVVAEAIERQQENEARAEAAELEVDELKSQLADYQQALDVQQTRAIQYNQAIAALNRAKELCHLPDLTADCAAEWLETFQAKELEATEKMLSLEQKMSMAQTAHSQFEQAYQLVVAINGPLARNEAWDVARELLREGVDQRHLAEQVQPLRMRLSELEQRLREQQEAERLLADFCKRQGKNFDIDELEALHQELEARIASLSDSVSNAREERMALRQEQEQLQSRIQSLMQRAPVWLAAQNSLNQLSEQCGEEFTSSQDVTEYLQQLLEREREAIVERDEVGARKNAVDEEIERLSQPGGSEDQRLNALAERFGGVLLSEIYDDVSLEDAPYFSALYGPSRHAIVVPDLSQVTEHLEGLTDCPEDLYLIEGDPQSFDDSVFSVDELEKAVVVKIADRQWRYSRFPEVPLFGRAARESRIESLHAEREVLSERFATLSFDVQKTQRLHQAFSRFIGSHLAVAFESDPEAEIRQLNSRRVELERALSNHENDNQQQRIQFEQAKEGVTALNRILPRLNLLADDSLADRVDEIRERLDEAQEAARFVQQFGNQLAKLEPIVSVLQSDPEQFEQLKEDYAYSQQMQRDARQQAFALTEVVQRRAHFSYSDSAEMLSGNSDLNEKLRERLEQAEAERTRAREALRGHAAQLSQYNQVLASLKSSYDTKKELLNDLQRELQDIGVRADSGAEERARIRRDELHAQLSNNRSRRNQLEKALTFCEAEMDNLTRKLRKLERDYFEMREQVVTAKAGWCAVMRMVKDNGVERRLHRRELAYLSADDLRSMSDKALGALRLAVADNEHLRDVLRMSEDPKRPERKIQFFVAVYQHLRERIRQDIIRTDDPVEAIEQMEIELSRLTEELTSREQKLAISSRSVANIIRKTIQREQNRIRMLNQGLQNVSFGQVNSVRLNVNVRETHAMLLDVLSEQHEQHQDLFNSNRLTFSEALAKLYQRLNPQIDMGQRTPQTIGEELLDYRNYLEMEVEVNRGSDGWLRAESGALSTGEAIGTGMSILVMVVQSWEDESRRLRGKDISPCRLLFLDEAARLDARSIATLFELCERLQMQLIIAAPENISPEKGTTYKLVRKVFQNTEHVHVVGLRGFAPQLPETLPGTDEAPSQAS

Variants of: B1
Conditions: with mukb_ecoli mukB

| effect of a mutation on the interaction | Variant |
| --- | --- |
| disrupting interaction | R705E;R729A |
| disrupting interaction | R705E |
| disrupting interaction | R729A |
